To fix the notation:
B1: Hairpin Ribozyme (parent)
chain: GUCCUCUUUCACGUGCGCGUGAAAGAGAGAAGUGAACCAGAGAAACACACGUUGUGGUAUAUUACCUGGUA

Here are results for 38 variants from the RNAGym collection of RNA variant scans (doi:10.7554/elife.80360).

This data set covers variants of B1. In words: self-cleavage, relative activity (ratio to wild type); higher = more cleavage; co-transcriptional.
Regarding GUCCUCUUUCACGUGCGCGUGAAAGAGUGGAGUGAACCAGAGAAACACACGUUGUGGUAUAUUACCUGGUA [A28U A30G], the self-cleavage stood at 0.0577. As for GUCCUCUUUCACCUGCGCGCGAAAGAGAGAAGUGAACCAGAGAAACACACGUUGUGGUAUAUUACCUGGUA [G13C U20C], the figure is 0.785; as for GUCCUCUUUCACGUGCGCGUGAAAGAGAGAAGUGAACCAGAGAAACAAACGUUGCGGUAUAUUACCUGGUA [C48A U55C], 0.144; as for GUCCUCUUUCACGUGCGCGUGAAAAAGAGAAGUGAACUAGAGAAACACACGUUGUGGUAUAUUACCUGGUA [G25A C38U], 0.283.

As to GUCCUCUUUCACGUACGCGUGAAAGAGAGAAGUGAACCAGAGAAACACACGUUGUGGUAUAUUCCCUGGUA [G15A A64C], the self-cleavage was 0.171. Take GUCCUCUUUCACGUGAGCGUGAAAGAGAGAAGUGAACCAGAGAAACACACGUUGUGGUAUAAUACCUGGUA [C16A U62A]: the self-cleavage was found to be 0.199. With GUCCUCUUUCACGUGCGCGUGAAAGAGAGAAGUGAACCAGAGAAACACAAGUAGUGGUAUAUUACCUGGUA [C50A U53A] the figure was 0.384; with GUCCUCUUUCACGUGCGCGUGAAAGAGAGAAGUGAACCAGAGAAAUACACGUUGUGGUAUAUUACCUGGUC [C46U A71C], 0.151. With GUCCUCUUUCACCGGCGCGUGAAAGAGAGAAGUGAACCAGAGAAACACACGUUGUGGUAUAUUACCUGGUA [G13C U14G] the figure was 0.688; with GUCCUCUUUCAAUUGCGCGUGAAAGAGAGAAGUGAACCAGAGAAACACACGUUGUGGUAUAUUACCUGGUA [C12A G13U], 0.673. As for GUCCUCUUUCACGUGCGCGUGAAAGAGAGAACUGAACCAGAGAAACACACGUUGUGGUAUAUAACCUGGUA [G32C U63A], the self-cleavage was determined as 0.208. As for GUCCUCUUUCACGUGCGCGUGAAAGAGAGAAGUGAACCAGAGAAACAUACGCUGUGGUAUAUUACCUGGUA [C48U U52C], the figure is 0.194; as for GUCCUCUUUCACGCGCGCGUGAAAGAGAGAAGUGAACCAGAGAAACACACGUUGUGGUAUAUUACCGGGUA [U14C U67G], 0.344; as for GUCCUCUUUCACGAGCGCGUGAAAGAGAGAAGUGAACCAGUGAAACACACGUUGUGGUAUAUUACCUGGUA [U14A A41U], 1.04. In the case of GUCCUCUCUCACGUGCGCGUGAAAGAGAGAAGUGAACCAGAGAAACACACGUUGUGGUAUAUUACCUCGUA [U8C G68C], the self-cleavage is 0.238. As for GUCAUCUUUCACGUGCGCGUGAAAGGGAGAAGUGAACCAGAGAAACACACGUUGUGGUAUAUUACCUGGUA [C4A A26G], the figure is 0.17; as for GUCCUCUUCCACGUGCGCGUGAAAGAGAGAAGGGAACCAGAGAAACACACGUUGUGGUAUAUUACCUGGUA [U9C U33G], 0.154; as for GUUCUCUUUCACGUGCGCGUGAAAGAGAGAAGUGAACCAGAGAAACACACGUUGUGGUAUCUUACCUGGUA [C3U A61C], 0.164. As for GUCCUCUUUCACGUGCGCGUGAAAGAGACAAGUGAUCCAGAGAAACACACGUUGUGGUAUAUUACCUGGUA [G29C A36U], the figure is 0.0836; as for GUCCUCUGUCACGUGCGCGUGAAAGAGAGAAGUGAACCAGAGAAACACACGUUGUGGUAUAUUACUUGGUA [U8G C66U], 0.412. With GUCCUCUGUCACGUGCGCGUGAAAGAGAGAAGUGAACCAGAGACACACACGUUGUGGUAUAUUACCUGGUA [U8G A44C] the figure was 0.139; with GUCCUCAUUCACGUGCGCGUGAAAGAGAGAAGUGAACCAGAGAAAAACACGUUGUGGUAUAUUACCUGGUA [U7A C46A], 0.0948; with GUCCUCUUUCACUUGCGCGUGAAAGAGAUAAGUGAACCAGAGAAACACACGUUGUGGUAUAUUACCUGGUA [G13U G29U], 0.147. Regarding GUCCUCUUUCACGUGCGCGUGAAAGAGAGACGUGCACCAGAGAAACACACGUUGUGGUAUAUUACCUGGUA [A31C A35C], the self-cleavage is 0.069. As for GUCCUCUUUCACGUGCGCGUGAAAGAGAGAAGUGAACCAGUGAAACACACGUUGUGGUAUAUUACCAGGUA [A41U U67A], the figure is 0.364.

For the variant GUCCUCUUUCACGUGCGCGUGAAAGAGAGAAGUGAACAAGAGAAACACAGGUUGUGGUAUAUUACCUGGUA [C38A C50G], the self-cleavage was 0.089.

Take GUCCUCUUUCACGAGCGUGUGAAAGAGAGAAGUGAACCAGAGAAACACACGUUGUGGUAUAUUACCUGGUA [U14A C18U]: the self-cleavage is 0.924. With GUCCUCUUUCACGUGAGCGUGAAAGAGAGAAGUGAACCAGAGAAACACACGUUGUGGUAUAUUACCUGCUA [C16A G69C] the figure was 0.205; with GUCCUCUUUCACGCGCGCGUGAUAGAGAGAAGUGAACCAGAGAAACACACGUUGUGGUAUAUUACCUGGUA [U14C A23U], 1.09.

GUCCUCUUUCACGUGCGCGUGAAAGAGAGAAGUGAACCAGAGAAGCACACGCUGUGGUAUAUUACCUGGUA [A45G U52C]: the self-cleavage was found to be 0.0811. With GUCCUCUUUCACGUCCGAGUGAAAGAGAGAAGUGAACCAGAGAAACACACGUUGUGGUAUAUUACCUGGUA [G15C C18A] the figure was 1.18; with GUCCUCUUUCACGUGCGCGUGUAAGAGAGAAGUGAACCAGAGAAACACACGUUGUGGUAUACUACCUGGUA [A22U U62C], 0.127; with GUCCUCUUUCACGUGCGCGUGCAAGAGAGAAGUGAACCAGAGAAACUCACGUUGUGGUAUAUUACCUGGUA [A22C A47U], 0.208. As for GUCCUCUUGCACGUGCGCGUGAAAGAGAGAAGUGAACCAGAGAAACACACGUUGUGGUAUAUUUCCUGGUA [U9G A64U], the figure is 0.164; as for GUCCUCUUUCACGUGCGCGUGAAAGAGAGAAGUGAAACAGAGAAACACACGUUGUGGUAUAUUACCUGGUU [C37A A71U], 0.284; as for GUCCUCUUUCACGUGCGCAUGAAAGAGAGAAGUGAACCAGAGUAACACACGUUGUGGUAUAUUACCUGGUA [G19A A43U], 0.102. With GUCCUCUUUCACGUGCGCGUGAAAGAGAGAAGUGAACCAGAGAAACACACGUUGUGGUAUGUUACCUGGCA [A61G U70C] the figure was 0.146; with GUCAGCUUUCACGUGCGCGUGAAAGAGAGAAGUGAACCAGAGAAACACACGUUGUGGUAUAUUACCUGGUA [C4A U5G], 0.109.
